What was measured:
Assay type in all cases: cell-based
[1] = system: cynomolgus monkey ES cells
human iPS cells [2] = assay: Induction of differentiation from human iPS cells into ovarian somatic cell-like cells (FACS of OSR1-tdTomato/NR5A1-EGFP reporters, observation of embryoid bodies); conditions: Activin A 10 ng/ml added between day 2 and day 4
Text: In order to conveniently observe the expression of genes typical at each developmental stage, a human iPS cell line 1390G3 was genetically modified, and a DNA sequence that emits red fluorescence (tdTomato) with the expression of the OSR1 gene, green fluorescence (EGFP) with the expression of the NR5A1 gene, and red fluorescence (tdTomato) with the expression of the FOXL2 gene was manufactured (see FIG. 1, and after introduction into the chromosome, a portion of “PGKp-Neo (or Puro)-pA” portion was deleted with Cre). An iPS cell line into which two DNA sequences of OSR1 and NR5A1 had been introduced (which may be hereinafter abbreviated as “OTNG”), and an iPS cell line into which two DNA sequences of NR5A1 and FOXL2 had been introduced (which may be hereinafter abbreviated as “NGFT”) were manufactured. In the present test, the OTNG strain was used in most of the experiments. Furthermore, NR5A1 and SF1 are the same gene.
The cells at each stage were analyzed using a flow cytometer (BD FACSAria III).
The ES cells of monkeys and human iPS cells are considered to be similar to EpiLC in a slightly advanced state in terms of differentiation, as compared with mouse ES cells. Therefore, in the examination using monkey or human pluripotent stem cells in the present test, step 0 was omitted and the process was started from step 1. […]

human iPS cells [3] = assay: Quantitative PCR of marker genes in cells induced from human iPS cells; conditions: Activin A 10 ng/mL added between day 2 and day 4, fibronectin plane culture
Text: The relative expression level of each marker gene was confirmed using a PCR apparatus (BIO-RAD CFX384 Real-Time System) with the following primers and conditions. In the tables, the PPIA gene and the RPLP0 gene were used as housekeeping genes. The difference in qPCR is a difference from the average value taken as “(PPIA+RPLP0)/2”. In addition, the ERCC gene was used as an absolute control between samples.

B1: Activin A: TGF-β family member produced by multiple cell species during development (protein, UniProt P08476 311-426, looked up)
Inhibin beta A chain: GLECDGKVNICCKKQFFVSFKDIGWNDWIIAPSGYHANYCEGECPSHIAGTSGSSLSFHSTVINHYRMRGHSPFANLKSCCVPTKLRPMSMLYYDDGQNIIKKDIQNMIVEECGCS
[1]; added in step 1: bFGF 50 ng/mL entire period, Activin A 10 ng/ml one day from day 1, FACS days 2, 4, 6
  expression of OSR1: acted toward enhancing the expression of OSR1
[1]; addition of Activin A after day 1 of step 1, FACS days 16 and 28
  improvement of induction: no improvement was observed
[1]; bFGF 50 ng/ml and Activin A 10 ng/ml (only from day 1) in step 1, days 14 and 21
  improvement of the induction of NR5A1-positive cells: not recognized
Human iPS cells [2]; plane culture, FACS day 15
  proportion of the OSR1− (negative) and SF1+ (positive) cells: further increased
Human iPS cells [2]; step 1 plane culture on fibronectin-coated plate
  size of the embryoid bodies: increased over time
Human iPS cells [3]; day 15
  expression of GATA3 and HOXB9: decreased
Human iPS cells [3]; day 27
  expression of FOXL2: almost equivalent to that in the ovarian somatic cells collected from the living body

Reference: patent publication US20240174985A1, “METHOD FOR PRODUCING OVARIAN SOMATIC CELL-LIKE CELLS, AND METHOD FOR INDUCING DIFFERENTIATION OF PRIMATE PLURIPOTENT STEM CELLS INTO OVARIAN SOMATIC CELL-LIKE CELLS” (Kyoto University, priority 2021, published 2024)
